Assays:
[1] = molecular target: 1:1 complex of ProTα E56C/D110C Alexa488/594 and unlabeled H1 (human); assay: single-molecule FRET; freely diffusing molecules; unlabeled H1 titrated to 50 pM labeled ProTα fully saturated with unlabeled H1 (PH + H ⇌ PHH); TBS, 13 mM ionic strength
[2] = molecular target: 1:1 complex of ProTα E56C/D110C Alexa488/594 and unlabeled H1 (human); assay: single-molecule FRET; freely diffusing molecules; unlabeled H1 titrated to 50 pM labeled ProTα fully saturated with unlabeled H1 (PH + H ⇌ PHH); TBS, 8 mM ionic strength
[3] = molecular target: ProTα E56C/D110C labeled with Alexa Fluor 488/594 (human); assay: single-molecule FRET; freely diffusing molecules; 50 pM labeled ProTα titrated with unlabeled H1; TBS, 340 mM ionic strength
[4] = molecular target: 1:1 complex of ProTα E56C/D110C Alexa488/594 and unlabeled H1 (human); assay: single-molecule FRET; freely diffusing molecules; unlabeled H1 titrated to 50 pM labeled ProTα fully saturated with unlabeled H1 (PH + H ⇌ PHH); TBS, 58 mM ionic strength
[5] = molecular target: Avi-ProTα E56C/D110C, biotinylated, labeled with Cy3B/LD650 (human); assay: single-molecule FRET; biotinylated Avi-ProTα immobilised on a PEG/neutravidin surface, unlabeled H1 in solution; two-state model of time traces; TBS in D2O, 230 mM ionic strength
[6] = molecular target: 1:1 complex of ProTα E56C/D110C Alexa488/594 and unlabeled H1 (human); assay: single-molecule FRET; freely diffusing molecules; unlabeled H1 titrated to 50 pM labeled ProTα fully saturated with unlabeled H1 (PH + H ⇌ PHH); TBS, 23 mM ionic strength
[7] = molecular target: ProTα E56C/D110C labeled with Alexa Fluor 488/594 (human); assay: single-molecule FRET; freely diffusing molecules; 50 pM labeled ProTα titrated with unlabeled H1; TBS, 180 mM ionic strength
[8] = molecular target: 1:1 complex of ProTα E56C/D110C Alexa488/594 and unlabeled H1 (human); assay: single-molecule FRET; freely diffusing molecules; unlabeled H1 titrated to 50 pM labeled ProTα fully saturated with unlabeled H1 (PH + H ⇌ PHH); TBS, 83 mM ionic strength
[9] = molecular target: 1:1 complex of ProTα E56C/D110C Alexa488/594 and unlabeled H1 (human); assay: single-molecule FRET; freely diffusing molecules; unlabeled H1 titrated to 50 pM labeled ProTα fully saturated with unlabeled H1 (PH + H ⇌ PHH); TBS, 43 mM ionic strength
[10] = molecular target: 1:1 complex of ProTα E56C/D110C Alexa488/594 and unlabeled H1 (human); assay: single-molecule FRET; freely diffusing molecules; unlabeled H1 titrated to 50 pM labeled ProTα fully saturated with unlabeled H1 (PH + H ⇌ PHH); TBS, 18 mM ionic strength
[11] = molecular target: Avi-ProTα E56C/D110C, biotinylated, labeled with Cy3B/LD650 (human); assay: single-molecule FRET; biotinylated Avi-ProTα immobilised on a PEG/neutravidin surface, unlabeled H1 in solution; two-state model of time traces; TBS in D2O, 230 mM ionic strength; remark: listed apart in the source
[12] = molecular target: Avi-ProTα E56C/D110C, biotinylated, labeled with Cy3B/LD650 (human); assay: single-molecule FRET; biotinylated Avi-ProTα immobilised on a PEG/neutravidin surface, unlabeled H1 in solution; two-state model of time traces; TBS in D2O, 275 mM ionic strength
[13] = molecular target: ProTα E56C/D110C labeled with Alexa Fluor 488/594 (human); assay: single-molecule FRET; freely diffusing molecules; 50 pM labeled ProTα titrated with unlabeled H1; TBS, 330 mM ionic strength
[14] = molecular target: ProTα E56C/D110C labeled with Alexa Fluor 488/594 (human); assay: stopped-flow fluorescence; 2 nM labeled ProTα mixed with different concentrations of H1; TBS, 165 mM ionic strength; fit with kex = kon cH + KD kon
[15] = molecular target: 1:1 complex of ProTα E56C/D110C Alexa488/594 and unlabeled H1 (human); assay: single-molecule FRET; rate coefficient of PH + H ⇌ PHH at 200 mM ionic strength; KD extrapolated from lower ionic strengths, kon^PHH assumed equal to kon^PPH
[16] = molecular target: ProTα E56C/D110C labeled with Alexa Fluor 488/594 (human); assay: single-molecule FRET; freely diffusing molecules; 50 pM labeled ProTα titrated with unlabeled H1; TBS, 290 mM ionic strength
[17] = molecular target: ProTα E56C/D110C labeled with Alexa Fluor 488/594 (human); assay: single-molecule FRET; freely diffusing molecules; 50 pM labeled ProTα titrated with unlabeled H1; TBS (10 mM Tris, 0.1 mM EDTA, KCl), 140 mM β-mercaptoethanol, 0.01% Tween 20; 165 mM ionic strength
[18] = molecular target: 1:1 complex of ProTα E56C/D110C Alexa488/594 and unlabeled H1 (human); assay: single-molecule FRET; freely diffusing molecules; unlabeled H1 titrated to 50 pM labeled ProTα fully saturated with unlabeled H1 (PH + H ⇌ PHH); TBS, 33 mM ionic strength
[19] = molecular target: ProTα S1C/E55C labeled with Alexa Fluor 488/594 (human); assay: single-molecule FRET; freely diffusing molecules; labeled protein titrated with the unlabeled partner (labeled ProTα with unlabeled H1, labeled H1 with unlabeled ProTα); TBS, 208 mM ionic strength
[20] = molecular target: ProTα E56C/D110C labeled with Atto 550/647N (human); assay: as above
[21] = molecular target: ProTα S1C/D110C labeled with Alexa Fluor 488/594 (human); assay: as above
[22] = molecular target: ProTα E56C/D110C labeled with Alexa Fluor 488/594 (human); assay: as above
[23] = molecular target: ProTα E56C/D110C labeled with Cy3B/Abberior STAR635 (human); assay: as above
[24] = molecular target: ProTα E55C/D109C labeled with Alexa Fluor 488/594 (human); assay: as above
[25] = molecular target: ProTα S1C/D109C labeled with Alexa Fluor 488/594 (human); assay: as above
[26] = molecular target: Avi-ProTα E56C/D110C, biotinylated, labeled with Cy3B/LD650 (human); assay: single-molecule FRET; biotinylated Avi-ProTα immobilised on a PEG/neutravidin surface, unlabeled H1 in solution; two-state model of time traces; TBS in D2O, 275 mM ionic strength; remark: listed apart in the source
[27] = molecular target: Avi-ProTα E56C/D110C, biotinylated, labeled with Cy3B/LD650 (human); assay: single-molecule FRET; freely diffusing molecules; 50 pM labeled ProTα titrated with unlabeled H1; TBS, 200 mM ionic strength
[28] = molecular target: ProTα E55C/D109C labeled with Alexa Fluor 488/594 (human); assay: as above
[29] = molecular target: ProTα E56C/D110C labeled with Alexa Fluor 488/594 (human); assay: single-molecule FRET; freely diffusing molecules; 50 pM labeled ProTα titrated with unlabeled H1; TBS, 240 mM ionic strength
[30] = molecular target: recombinant wild-type human histone H1.0 (unlabeled) (human); assay: single-molecule FRET; competition titration, freely diffusing molecules; constant 50 pM labeled ProTα and unlabeled H1 (1 to 50 nM), unlabeled ProTα varied; TBS, 165 mM ionic strength
Sequence of recombinant wild-type human histone H1.0 (unlabeled) (human) (P07305 2-194): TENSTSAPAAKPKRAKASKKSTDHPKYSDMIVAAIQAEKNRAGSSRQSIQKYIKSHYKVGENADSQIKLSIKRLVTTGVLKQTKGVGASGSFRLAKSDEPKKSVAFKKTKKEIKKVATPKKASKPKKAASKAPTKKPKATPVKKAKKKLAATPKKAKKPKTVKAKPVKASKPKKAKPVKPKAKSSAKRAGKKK

[31] = molecular target: recombinant wild-type human histone H1.0 (unlabeled) (human); assay: single-molecule FRET; competition titration, freely diffusing molecules; constant 50 pM labeled ProTα and unlabeled H1 (1 to 50 nM), unlabeled ProTα varied; TBS, 230 mM ionic strength
[32] = molecular target: H1 V104C/G194C labeled with Alexa Fluor 488/594 (human); assay: single-molecule FRET; freely diffusing molecules; labeled protein titrated with the unlabeled partner (labeled ProTα with unlabeled H1, labeled H1 with unlabeled ProTα); TBS, 208 mM ionic strength

Sequence of recombinant wild-type human histone H1.0 (unlabeled) (natural protein) (P07305 2-194): as above

**Q.** For “recombinant wild-type human histone H1.0 (unlabeled) (natural protein)”, which Kd [1] is on record?
**A.** Its Kd is 540 nM.

**Q.** What about the Kd [2] of the same substance?
**A.** The Kd was 200 nM.

**Q.** What about the Kd [3] of the same substance?
**A.** Its Kd is 4000 nM.

**Q.** And the Kd [4]?
**A.** Its Kd is 2800 nM.

**Q.** And the Kd [5]?
**A.** The Kd was 2 nM.

**Q.** What about the koff [5] of the same substance?
**A.** Its koff is 2.8 s⁻¹.

**Q.** What about the kon [5] of the same substance?
**A.** Its kon is 3.1e+09 M⁻¹ s⁻¹.

**Q.** And the Kd [6]?
**A.** The Kd was 540 nM.

**Q.** What about the Kd [7] of the same substance?
**A.** The Kd was 0.037 nM.

**Q.** And the Kd [8]?
**A.** Its Kd is 4100 nM.

**Q.** And the Kd [9]?
**A.** Its Kd is 1800 nM.

**Q.** What about the Kd [10] of the same substance?
**A.** The Kd was 710 nM.

**Q.** What about the kon [11] of the same substance?
**A.** The kon was 1.4e+09 M⁻¹ s⁻¹.

**Q.** What about the kon [12] of the same substance?
**A.** Its kon is 1.01e+09 M⁻¹ s⁻¹.

**Q.** What about the Kd [13] of the same substance?
**A.** The Kd was 1400 nM.

**Q.** And the koff [14]?
**A.** Its koff is 0.006 s⁻¹.

**Q.** What about the kon [14] of the same substance?
**A.** The kon was 3.5e+09 M⁻¹ s⁻¹.

**Q.** What about the koff [15] of the same substance?
**A.** Its koff is 6000 s⁻¹.

**Q.** And the Kd [16]?
**A.** The Kd was 230 nM.

**Q.** And the Kd [17]?
**A.** The Kd was 0.0021 nM.

**Q.** What about the Kd [18] of the same substance?
**A.** Its Kd is 1310 nM.

**Q.** What about the Kd [19] of the same substance?
**A.** Its Kd is 1.3 nM.

**Q.** And the Kd [20]?
**A.** Its Kd is 3.1 nM.

**Q.** What about the Kd [21] of the same substance?
**A.** The Kd was 2 nM.

**Q.** What about the Kd [22] of the same substance?
**A.** The Kd was 1 nM.

**Q.** What about the Kd [23] of the same substance?
**A.** The Kd was 1 nM.

**Q.** What about the Kd [24] of the same substance?
**A.** The Kd was 1.3 nM.

**Q.** What about the Kd [25] of the same substance?
**A.** The Kd was 2.3 nM.

**Q.** What about the Kd [26] of the same substance?
**A.** The Kd was 59 nM.

**Q.** And the koff [26]?
**A.** Its koff is 59 s⁻¹.

**Q.** And the kon [26]?
**A.** Its kon is 3.1e+09 M⁻¹ s⁻¹.

**Q.** What about the Kd [27] of the same substance?
**A.** The Kd was 1.12 nM.

**Q.** What about the Kd [28] of the same substance?
**A.** The Kd was 0.51 nM.

**Q.** What about the Kd [29] of the same substance?
**A.** The Kd was 25 nM.

**Q.** How did the Kd [30] turn out when “ProTα (unlabeled & NMR) (natural protein)” was run?
**A.** Its Kd is 0.0058 nM.

**Q.** What about the Kd [31] of the same substance?
**A.** The Kd was 6.5 nM.

**Q.** What about the Kd [32] of the same substance?
**A.** Its Kd is 3.5 nM.
